Assays:
NP nucleosomes = target: T1, NP nucleosomes (Homo sapiens, UniProt Q9UGN5); test: EMSA of WGR domain-nucleosome complexes (0.7% agarose gel); assay type: binding, chicken; conditions: no divalent cations or 2 mM Zn2+
T1 construct: WGR domain of PARP2 (residues 77–220) into pET-15b-TEV expression vector; 6xHis (pET-15b-TEV) (N, cleaved yes); made in house; host or cells: Escherichia coli Rosetta2 (DE3) pLysS (WGR)
Experimental: Sample preparation for EMSA was the same as for spFRET microscopy, although a slightly higher concentration of nucleosomes (2–3 nM) was used. […] Electrophoresis was performed under native conditions at 140 V, + 4 °C for ∼1.5 h. The gels were scanned using Amersham Typhoon RGB imager (Cytiva, Sweden). Fluorescence was excited in the gel at the 532 nm wavelength and recorded in the 570–610 nm (Cy3 signal) and 650–700 nm (FRET signal of Cy5) spectral regions. The resulting images were obtained in green (Cy3 signal) and red (FRET signal of Cy5) colors and merged.
Fig. 3 WGR domain of PARP2 binds zinc ions and reorganizes nucleosome structure. (a) A model of Zn^2+ binding to the WGR domain created on the basis of the PDB structure 6F5B. Two putative binding sites are shown. N- and C-terminal ends of the WGR domain are indicated. The numbering of the residues corresponds to the numbering of the complete PARP2 sequence. (b) CD spectra of the WGR domain (60 µM) in a buffer containing no divalent cations (Me^2+) or 0.5 mM Zn^2+ ions. (c) Content of canonical types of secondary structures in the WGR domain of PARP2 according to the analysis of CD spectra of the WGR domain measured in the absence or presence of 0.5 mM Zn^2+ ions. (d) Changes in the fluorescence spectra of tryptophan residues 148, 151 and 188 of the WGR domain (5 µM) at different concentrations of Zn^2+ ions. […]

Nd nucleosomes = target: T2, Nd nucleosomes (Homo sapiens, UniProt Q9UGN5); test: Fluorescence microscopy of Nd nucleosomes binding to His-tagged WGR immobilized on Ni-NTA beads; parameters: species or system chicken; conditions: beads with immobilized His-tagged WGR vs without
T2 construct: WGR domain of PARP2 (residues 77–220) into pET-15b-TEV expression vector; made in house; host or cells: Escherichia coli Rosetta2 (DE3) pLysS
Experimental: The binding of nucleosomes to the WGR domain was confirmed after immobilization of the protein containing His-tag on the surface of Ni-NTA beads using fluorescence microscopy (Figure S6).
Figure S6. Confocal fluorescence (a, c, e) and transmitted-light (b, d, f) imaging of Ni-NTA beads with (a, b, e, f) or without
(c, d) immobilized 6 ×His-WGR. The beads were additionally incubated with Nd nucleosomes (a, b, c, d). The parameters of
measurements and intensity scales in fluorescent images(a, c, e)are the same. […]

B1: WGR domain: recombinant WGR domain of PARP2 (residues 77–220) expressed in Escherichia coli (protein, UniProt O88554 77-220, looked up, fragment)
chain: ECAAKLGKAHVYCEGDDVYDVMLNQTNLQFNNNKYYLIQLLEDDAQRNFSVWMRWGRVGKTGQHSLVTCSGDLNKAKEIFQKKFLDKTKNNWEDRENFEKVPGKYDMLQMDYAASTQDESKTKEEETLKPESQLDLRVQELLKL
modifications: WGR domain
notes: recombinant WGR domain of PARP2 (residues 77–220) expressed in Escherichia coli
NP nucleosomes
  binding of the WGR domain to nucleosomes: binds to nucleosomes in the presence and absence of Zn^2+ ions
Nd nucleosomes
  binding of Nd nucleosomes to Ni-NTA beads: strongly increased
